Experimental data taken from patent publication US20190177408A1 (SUZHOU CONNECT BIOPHARMACEUTICALS, published 2019).
Positions count from the first letter of the chain named. Read-outs that look alike come from different tables or passages of the source.

Columns and labels:
[1] = biological target: T1, IL-4Rα on TF-1 cells (human, UniProt P24394 26-825); experiment: cell-based or functional assay
T1 sequence (looked up): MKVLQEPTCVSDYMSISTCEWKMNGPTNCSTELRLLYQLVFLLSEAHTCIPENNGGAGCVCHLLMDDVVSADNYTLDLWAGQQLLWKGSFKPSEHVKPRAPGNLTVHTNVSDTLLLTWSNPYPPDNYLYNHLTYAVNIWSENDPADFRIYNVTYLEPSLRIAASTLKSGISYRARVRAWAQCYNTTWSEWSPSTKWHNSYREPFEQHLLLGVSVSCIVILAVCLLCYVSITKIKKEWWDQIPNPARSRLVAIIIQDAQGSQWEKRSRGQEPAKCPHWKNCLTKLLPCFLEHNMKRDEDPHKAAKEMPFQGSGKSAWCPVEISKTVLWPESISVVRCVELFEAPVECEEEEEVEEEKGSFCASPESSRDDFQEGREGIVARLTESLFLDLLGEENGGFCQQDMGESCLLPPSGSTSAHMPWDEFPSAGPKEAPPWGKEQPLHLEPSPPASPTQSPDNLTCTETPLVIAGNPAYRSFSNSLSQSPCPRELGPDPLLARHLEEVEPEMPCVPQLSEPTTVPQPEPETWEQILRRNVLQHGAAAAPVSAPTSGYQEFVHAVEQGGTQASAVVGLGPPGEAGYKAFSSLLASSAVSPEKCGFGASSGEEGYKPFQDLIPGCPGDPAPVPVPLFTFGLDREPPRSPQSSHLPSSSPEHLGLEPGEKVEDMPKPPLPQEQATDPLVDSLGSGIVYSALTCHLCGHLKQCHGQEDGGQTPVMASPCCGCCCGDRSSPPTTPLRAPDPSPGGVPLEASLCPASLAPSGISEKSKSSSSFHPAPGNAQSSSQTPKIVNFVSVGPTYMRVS

[2] = biological target: T2, human soluble IL-4Rα (sIL-4Rα) (human, UniProt P24394 26-232); experiment: ELISA, coated sIL-4Rα, culture supernatant
T2 construct: Bought reagent (PEPRO TECH, Catalog Number 200-04R); also called shIL-4Rα; soluble hIL-4 Rα
T2 sequence: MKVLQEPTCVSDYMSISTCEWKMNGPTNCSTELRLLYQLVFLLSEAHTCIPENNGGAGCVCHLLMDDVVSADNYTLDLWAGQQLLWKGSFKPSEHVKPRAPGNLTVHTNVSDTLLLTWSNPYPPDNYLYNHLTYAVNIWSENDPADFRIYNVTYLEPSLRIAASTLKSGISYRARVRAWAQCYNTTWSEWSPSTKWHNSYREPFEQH
Description: 100 μl of 100 μg/ml sIL-4Rα solution was added to 9.90 ml of PBS, mixed up and down, and then an antigen coating buffer of 1.0 μg/ml was obtained. The prepared antigen coating buffer was added to a 96-well ELISA plate (Corning) with a volume of 100 μl per well. The 96-well ELISA plate was incubated overnight in a refrigerator at 4° C. On the next day; the solution therein was discarded; and PBS containing 2% BSA was added to the 96-well ELISA plate row by row with a volume of 300 μl per well. The 96-well ELISA plate was incubated for 2 hours in a refrigerator at 4° C., Then the PBS containing 2% BSA was discarded and the plate was washed 3 times with PBST. Diluted antibodies to be tested were sequentially added to the corresponding wells, while the normal cell culture supernatants, as negative control samples, were added too. Three duplicate wells were made for each sample with a volume of 100 μl per well. The ELISA plate was wrapped with preservative film (or covered) and incubated for 1 h at […] in a constant temperature incubator. Subsequently, the 96-well ELISA plate was taken out, and the solution therein was discarded. After washing with PBST for 3 times, TMB solution (Solarbio, Catalog Number: PR1200) was added to the 96-well ELISA plate row by row with a volume of 100 μl per well. The 96-well ELISA plate was placed at room temperature for 5 minutes, and 2 M H2SO4 solution was added in immediately to terminate the reaction. The 96-well ELISA plate was placed in flexstation 3 (Molecular Devices), the values of OD450 were read, and the data were collected, calculated and analyzed. Results were expressed relative to the affinity of control antibody 1.

[3] = biological target: T1, IL-4Rα on TF-1 cells; experiment: cell-based or functional assay; remark: listed apart in the source
[4] = biological target: T1, IL-4Rα on TF-1 cells; experiment: cell-based or functional assay; remark: listed apart in the source

B1: L1001H1000 (antibody, V domains shown)
VH: EVQLVQSGGGLVHPGGSLRLSCAGSGFTFSRNAMFWVRQAPGKGLEWVSGIGTGGATNYADSVKGRFTISRDNAKNSLYLQMNSLRAEDMAVYYCARGRYYFDYWGQGTLVTVSS
VL: EIVLTQSPGTLSLSPGERATLSCRASQSVSNSYLAWYQQKPGQAPRLLIYGASSRAPGIPDRFSGSGSGTDFTLTISRLEPEDFAVYYCQQYDHSAGWTFGQGTKVEIK
notes: human kappa
Inhibitory rate on pro-proliferative effect of IL-4 [1]: 0.98 | Inhibitory rate on pro-proliferative effect of IL-13 [1]: 0.85 | OD 450/OD450Control antibody 1 [2]: 1.56

B2: L1021H1031 (antibody, V domains shown)
VH: B1 VH with Q6E, H13Q, G24A, N58S, M90T
VL: B1 VL with N31S, Y50F
notes: human kappa
IC50 (ng/ml) (Inhibition on the proliferation of IL-4) [3]: 34.3 ng/mL | IC50 (ng/ml) (Inhibition on the proliferation of IL-13) [3]: 76.5 ng/mL | Inhibitory rate on pro-proliferative effect of IL-4 [1]: 1.01 | Inhibitory rate on pro-proliferative effect of IL-13 [1]: 0.93 | OD 450/OD450Control antibody 1 [2]: 0.9

B3: L1021H1007 (antibody, V domains shown)
VH: B1 VH with N58S
VL: B1 VL with N31S, Y50F
notes: human kappa
Inhibitory rate on pro-proliferative effect of IL-4 [1]: 1 | Inhibitory rate on pro-proliferative effect of IL-13 [1]: 0.86 | OD 450/OD450Control antibody 1 [2]: 0.44

B4: L1021H1020 (antibody, V domains shown)
VH: B1 VH with N58S, D103P, Y104W
VL: B1 VL with N31S, Y50F
notes: human kappa
IC50 (ng/ml) (Inhibition on the proliferation of IL-4) [3]: 15.4 ng/mL | IC50 (ng/ml) (Inhibition on the proliferation of IL-13) [3]: 28.6 ng/mL | Inhibitory rate on pro-proliferative effect of IL-4 [1]: 0.91 | Inhibitory rate on pro-proliferative effect of IL-13 [1]: 0.75 | OD 450/OD450Control antibody 1 [2]: 0.24

B5: L1021H1027 (antibody, V domains shown)
VH: B1 VH with Q6E, G24A, N58S, M90T, D103P, Y104W
VL: B1 VL with N31S, Y50F
notes: human kappa
Inhibitory rate on pro-proliferative effect of IL-4 [1]: 1.02 | Inhibitory rate on pro-proliferative effect of IL-13 [1]: 0.94 | OD 450/OD450Control antibody 1 [2]: 0.29

B6: L1021H1029 (antibody, V domains shown)
VH: B1 VH with Q6E, H13Q, G24A, N58S, D103P, Y104W
VL: B1 VL with N31S, Y50F
notes: human kappa
Inhibitory rate on pro-proliferative effect of IL-4 [1]: 1.02 | Inhibitory rate on pro-proliferative effect of IL-13 [1]: 0.92 | OD 450/OD450Control antibody 1 [2]: 1

B7: L1023H1000 (antibody, V domains shown)
VH: B1 VH
VL: B1 VL with N31S
Inhibitory rate on pro-proliferative effect of IL-4 [4]: 0.26 | Inhibitory rate on pro-proliferative effect of IL-13 [4]: 0.07

B8: L1024H1000 (antibody, V domains shown)
VH: B1 VH
VL: B1 VL with Y50F
notes: human kappa
Inhibitory rate on pro-proliferative effect of IL-4 [4]: 0.44 | Inhibitory rate on pro-proliferative effect of IL-13 [4]: 0.39 | OD 450/OD450Control antibody 1 [2]: 0.69

B9: L1024H1031 (antibody, V domains shown)
VH: B1 VH with Q6E, H13Q, G24A, N58S, M90T
VL: B1 VL with Y50F
notes: human kappa
Inhibitory rate on pro-proliferative effect of IL-4 [1]: 1.01 | Inhibitory rate on pro-proliferative effect of IL-13 [1]: 0.94 | OD 450/OD450Control antibody 1 [2]: 0.9

B10: L1021H1016 (antibody, V domains shown)
VH: B1 VH with D103P, Y104W
VL: B1 VL with N31S, Y50F
notes: human kappa
IC50 (ng/ml) (Inhibition on the proliferation of IL-4) [3]: 28.5 ng/mL | IC50 (ng/ml) (Inhibition on the proliferation of IL-13) [3]: 69.7 ng/mL | Inhibitory rate on pro-proliferative effect of IL-4 [1]: 1 | Inhibitory rate on pro-proliferative effect of IL-13 [1]: 0.94 | OD 450/OD450Control antibody 1 [2]: 0.63

B11: L1024H1007 (antibody, V domains shown)
VH: B1 VH with N58S
VL: B1 VL with Y50F
notes: human kappa
Inhibitory rate on pro-proliferative effect of IL-4 [4]: 0.86 | Inhibitory rate on pro-proliferative effect of IL-13 [4]: 0.7 | OD 450/OD450Control antibody 1 [2]: 0.23

B12: L1021H1000 (antibody, V domains shown)
VH: B1 VH
VL: B1 VL with N31S, Y50F
notes: human kappa
Inhibitory rate on pro-proliferative effect of IL-4 [1]: 0.95 | Inhibitory rate on pro-proliferative effect of IL-13 [1]: 0.78 | OD 450/OD450Control antibody 1 [2]: 2.42

B13: L1019H1000 (antibody, V domains shown)
VH: B1 VH
VL: B1 VL with Y50F, P57T
notes: human kappa
Inhibitory rate on pro-proliferative effect of IL-4 [4]: 0.72 | Inhibitory rate on pro-proliferative effect of IL-13 [4]: 0.49 | OD 450/OD450Control antibody 1 [2]: 1.79

B14: L1022H1000 (antibody, V domains shown)
VH: B1 VH
VL: B1 VL with P57T
notes: human kappa
Inhibitory rate on pro-proliferative effect of IL-4 [4]: -0.05 | Inhibitory rate on pro-proliferative effect of IL-13 [4]: 0.02 | OD 450/OD450Control antibody 1 [2]: 0.16
